{"source": "patent US20230167458A1", "about": "“FORSKOLIN-INDUCIBLE PROMOTERS AND HYPOXIA-INDUCIBLE PROMOTERS” (ASKLEPIOS BIOPHARMACEUTICAL, INC., priority 2020, published 2023)", "molecules": {"B1": {"name": "HYBT: synthetic hypoxia-inducible promoter, SEQ ID NO: 84/86; 4 HRE3 elements and YB-TATA minimal promoter (nucleic acid)", "DNA": "GATCTTTGTATTTAATTAAGACCTTGAGTACGTGCGTCTCTGCACGTATGGCGATTAAGACCTTGAGTACGTGCGTCTCTGCACGTATGGCGATTAAGACCTTGAGTACGTGCGTCTCTGCACGTATGGCGATTAAGACCTTGAGTACGTGCGTCTCTGCACGTATGGCGATTAATCCATATGCTCTAGAGGGTATATAATGGGGGCCACTAGTCTACTACCAGAAAGCTTGGTACCGAGCTCGGATCCAGCCACC", "modifications": "Synp-HYBT", "notes": "4 HRE3 elements and YB-TATA minimal promoter"}, "B2": {"name": "RTV-016: synthetic hypoxia-inducible promoter, SEQ ID NO: 82; 6 HRE2 elements spaced by 20 bp and CMV minimal promoter (nucleic acid)", "DNA": "CTGCACGTAGATGATGCGTAGCTAGTAGTCTGCACGTAGATGATGCGTAGCTAGTAGTCTGCACGTAGATGATGCGTAGCTAGTAGTCTGCACGTAGATGATGCGTAGCTAGTAGTCTGCACGTAGATGATGCGTAGCTAGTAGTCTGCACGTAGTAGTCGTATGCTGATGCGCAGTTAGCGTAGCTGAGGTACCGTCGACGATATCGGATCCAGGTCTATATAAGCAGAGCTCGTTTAGTGAACCGTCAGATCGCCTAGATACGCCATCCACGCTGTTTTGACCTCCATAGAAGATCGCCACC", "modifications": "Synp-RTV-016", "notes": "6 HRE2 elements spaced by 20 bp and CMV minimal promoter"}}, "key": {"[1]": {"system": "CHO-GSK1SV", "experiment": "Luciferase expression in normoxia vs 24 h hypoxia, transiently transfected CHO-GS suspension cells", "assay_type": "cell-based, chinese hamster", "conditions": "transient CHO_GS", "procedure": "40 ml of cells were grown in a 250 ml vented Erlenmeyer flask (Sigma-Aldrich CLS431144) at 37° C., 20% O2, 8% CO2 with agitation at 100 rpm. Cells were seeded as at 300,000 cells/ml.\nOne day before transfection, the cells were counted using a haemocytometer and split to 500,000 cells/ml.\nOn the day of transfection, the cells are seeded to 1,000,000 cells/ml in 500 μl of appropriate medium (Thermofisher, CD-CHO 10743029) in a 24 well plate. […] of DNA per well was then added to 10 μl of OptiMem medium (Thermofisher; 11058021) and incubated for 5 minutes at room temperature.\nConcurrently, 0.625 μl of Freestyle Max reagent (Thermofisher, 16447100) was made up to 10 μl by addition of OptiMem and incubated for 5 minutes at room temperature. After this incubation, both mixes were added to the same tube and incubated at room temperature for 25-30 minutes. The DNA/Max reagent mix (20 μl/well) was then added directly to the cells and the cells incubated at 37 C, 8% CO2 with agitation at 100 rpm.\nThe transfected DNA was one of the vectors where the promoter constructs (RTV-015, HYBT, RTV-016, HV3C) or a control promoter (CMV-IE) were used to drive luciferase expression and β-galactosidase containing pcDNA6 plasmid. The β-galactosidase containing plasmid was used as internal control for transfection efficiency (Thermofisher, V22020).\nAfter transfection the cells were incubated for 24 hrs in normoxic conditions (20% oxygen). Induction of the promoters was assessed by using luciferase activity after 24 hrs in normoxia or hypoxia (5% oxygen, 10% carbon dioxide and 85% nitrogen). Hypoxia was achieved by gas displacement in a sealed hypoxia chamber. Luciferase activity was measured as described above."}, "[2]": {"system": "CHO-GSK1SV cell line", "experiment": "SEAP expression and cell number in normoxia vs 24 h hypoxia, stably transfected CHO-GS-KSV1", "assay_type": "cell-based, chinese hamster", "conditions": "stably integrated CHO-GSK1SV", "procedure": "Cell suspensions of 6×10^5 cells per mL are incubated on an orbital shaker set at 8% CO2, 20% O2, 37° C., 85% relative humidity and 140 rpm overnight. 2.86×10^7 cells were centrifuged at 200 g for 3 minutes. Media is then aspirated and cell pellet resuspended in 2 mL fresh CD-CHO media to obtain a concentration of 1.43×10^7 cells per mL. 700 μL of cell suspension was added to each of two electroporation cuvettes each containing […] of linearised DNA in 100 μL of sterile TE buffer (Thermofisher, 12090015). Each cuvette was electroporated, delivering a single pulse of 300V, […] with resistance to infinity. Immediately after delivery of pulse electroplated cells were transferred to Erlenmeyer 125 mL flask containing 20 mL of CD-CHO media pre-warmed to 37° C. Electroporated cells from two cuvettes are combined into a single 125 mL flask to generate one pool of cells. Cells are cultured on an orbital shaker set at 8% CO2, 20% 02, 37° C., 85% relative humidity and 140 rpm. Cells are transferred to fresh CD-CHO media 24 hours after transfection and cell cultures monitored and given fresh CD-CHO media every 2-4 days. Usually after about 10-14 days cell numbers will be high enough to start passaging. Cells were selected at 14 days and then expanded. Induction was performed once doubling time had returned to approx. 24 hrs. The cells assayed in this example were at passage number 15, 17, 19 and 21.\nThe transfected DNA was pXC-17.4 expression vector (Lonza Biologics plc) where one of the promoter constructs (RTV-015, HYBT, RTV-016, HV3C) or a control promoter (CMV-IE) have been cloned upstream of the SEAP gene, which had been cloned into the multiple cloning site within the vector expression cassette. Promoters were closed into the pXC-17.4 vector using Gibson assembly. The pXC-17.4 expression vector is designed for making stable cell lines in the CHO-GSK1SV cell line as it contains the […] gene which has been knocked out of the cell line. Therefore, selection of cells in glutamine drop-out medium will select for cells that have stably integrated the plasmid.\nStably transfected CHO-GS cells were seeded at 500,000 cells/ml and allowed to grow for 24 hrs, at this point the cells were counted and placed under hypoxic conditions as previously described. After 24 hrs, the cell numbers and the expression of SEAP was measured.\nSEAP Reporter Gene Assay, chemiluminescent (Roche, CAT #11 779 842 001) was used to measured SEAP activity as per manufacturers protocol. All reagents and samples were fully pre-equilibrated at room temperature. Culture supernatant was collected from the stably transfected CHO-GS at the specific time points (0 h and 24 h). The supernatant was diluted 1:4 in dilution buffer and heat treated at 65° C. for 30 minutes. The heat-treated sample was then centrifuged for 30 s at maximum speed. 50 μl of the heat-treated sample was then added to 5 μl of inactivation buffer and incubated for 5 min at room temperature. 50 μl of substrate reagent was then added and incubated for 10 min at room temperature. The signal is then read at 477 nm and compared to a calibration curve. SEAP expression was normalized against cell number to ensure that the increase in activity was not due to increased cell numbers and was true induction. The result of this experiment can be seen in FIG. 16 and FIG. 17."}, "[3]": {"system": "HEK293-T", "experiment": "Luciferase expression in normoxia vs 24 h hypoxia, transiently transfected HEK293-T", "assay_type": "cell-based, human", "procedure": "HEK293-T are seeded at a density of 20%. Once they reached a confluence between 60 and 80%, the media is changed with DMEM (#21885-025—Thermo Scientific) supplemented with 10% FBS (Gibco, 26140). After 3 hours, the cells were transfected by a transfection mix. The transfection mix is prepared by adding DNA ([…] per 6 well plate) and PEI 25 kDA (#23966-1—Polyscience) in a ratio of 1:3 in sterile DPBS (#14190169—ThermoFisher Scientific). After mixing, the transfection mix is incubated at room temperature for 30 minutes and then added directly to the cells. After 16 to 18 h post transfection, the media is changed to DMEM+2% FBS. The transfected DNA was one of the vectors where the promoter constructs (RTV-015, HYBT, RTV-016, HV3C) or a control promoter (CMV-IE) were used to drive luciferase expression and β-galactosidase containing pcDNA6 plasmid. The β-galactosidase containing plasmid was used as internal control for transfection efficiency (Thermofisher, V22020).\nAfter transfection the cells were incubated for 24 hrs in normoxic conditions (20% oxygen). Induction of the promoters was assessed by using luciferase activity after 24 hrs in normoxia or hypoxia (5% oxygen, 10% carbon dioxide and 85% nitrogen). Hypoxia was achieved by gas displacement in a sealed hypoxia chamber.\nLuciferase activity was measured using LARII (Dual Luciferase Reporter 1000 assay system, Promega, E1980).\nMedia was removed from the cells at the respective time point (0, 3, 5, 24 hrs after induction). The cells were washed once in 300 μl of DPBS. Cells were lysed by adding 100 μl of passive lysis buffer to the cells and incubation with rocking for 15 minutes. The cell debris was pelleted by centrifugation of the plate at max speed in a benchtop centrifuge for 1 min. 10 μl of supernatant was pipetted into white 96-well plate and luminescence measured by addition of 50 μl of LARII substrate.\nβ-galactosidase activity was measured as per manufacturer's instructions (Mammalian βGalactosidase Assay Kit, 75707/75710, Thermo Scientific) using 25 μl of lysate. 25 μl of lysate was transferred into a microplate well and mixed with 25 μl of β-galactosidase Assay Reagent, equilibrated to room temperature. The mixture was incubated at 37° C. for 30 min and absorbance measured at 405 nm.\nLuciferase readouts were normalised to β-galactosidase to produce normalised relative luminometer units (RLUs)."}}}
{"molecule": "B1", "values": [{"measurement": "luciferase activity in normoxia", "setting": "[1]", "result": "almost no luciferase activity"}, {"measurement": "SEAP activity in normoxia", "setting": "[2]", "result": "almost no SEAP activity"}, {"measurement": "inducibility after 24 hours in hypoxia (rank)", "setting": "[2]", "result": "highest"}, {"measurement": "luciferase activity in normoxia", "setting": "[3]", "result": "almost no luciferase activity"}]}
{"molecule": "B2", "values": [{"measurement": "luciferase activity in normoxia", "setting": "[1]", "result": "almost no luciferase activity"}, {"measurement": "SEAP activity in normoxia", "setting": "[2]", "result": "almost no SEAP activity"}, {"measurement": "luciferase activity in normoxia", "setting": "[3]", "result": "almost no luciferase activity"}]}
